For three molecules, pKd results are on record in PMC9482650, “Quantitative fragmentomics allow affinity mapping of interactomes” (Nature Communications, 2022).

Some targets named below: MAGI1_2, Q96QZ7; Inadl_4, Q8NI35; DLG4_1, P78352; Inadl_3, Q8NI35; DLG1_3, Q12959; MAGI2_5, Q86UL8; DLG1_1, Q12959; Inadl_9, Q8NI35.
Test in all cases: holdup assay
Common to all, as to set-up: key: below the threshold = too weak to quantify, mostly under pKd 3.1 to 4

The target of a further assay is T1, GRIP1_3, Q9Y3R0.
T1 sequence (Q9Y3R0 247-346, limits assumed, looked up): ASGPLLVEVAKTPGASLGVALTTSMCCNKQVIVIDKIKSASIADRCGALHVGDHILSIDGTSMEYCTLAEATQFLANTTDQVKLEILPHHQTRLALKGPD

The next assay has as its target T2, HTRA4, P83105.
T2 sequence (P83105 378-476, limits assumed, looked up): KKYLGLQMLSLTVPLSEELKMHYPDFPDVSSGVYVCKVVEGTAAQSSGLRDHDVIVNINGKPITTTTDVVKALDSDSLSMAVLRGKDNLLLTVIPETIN

The target in a further assay is T3, DFNB31_3, Q9P202.
T3 sequence (Q9P202 811-907, limits assumed, looked up): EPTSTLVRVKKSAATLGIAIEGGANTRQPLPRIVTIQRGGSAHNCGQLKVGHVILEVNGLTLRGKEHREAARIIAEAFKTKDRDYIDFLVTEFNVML

A further assay has as its target T4, LIN7C, Q9NUP9.
T4 sequence (Q9NUP9 88-185, limits assumed, looked up): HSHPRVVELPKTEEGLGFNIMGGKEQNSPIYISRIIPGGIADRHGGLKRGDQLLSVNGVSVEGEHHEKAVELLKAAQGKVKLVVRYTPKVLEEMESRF

For a further assay, the target named is T5, APBA2_2, Q99767.
T5 sequence (Q99767 654-744, limits assumed, looked up): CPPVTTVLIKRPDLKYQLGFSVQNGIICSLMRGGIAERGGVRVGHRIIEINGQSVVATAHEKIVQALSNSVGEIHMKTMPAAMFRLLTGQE

A further assay has as its target T6, APBA1_1, Q02410.
T6 sequence (Q02410 651-752, limits assumed, looked up): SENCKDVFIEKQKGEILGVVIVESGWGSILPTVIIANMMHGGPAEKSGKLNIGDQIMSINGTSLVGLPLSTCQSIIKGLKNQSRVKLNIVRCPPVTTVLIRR

For a further assay, the target named is T7, GRIP1_2, Q9Y3R0.
T7 sequence (Q9Y3R0 145-248, limits assumed, looked up): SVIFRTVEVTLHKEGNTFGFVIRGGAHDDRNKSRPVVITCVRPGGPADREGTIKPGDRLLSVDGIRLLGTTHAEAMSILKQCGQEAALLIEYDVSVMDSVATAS

The target in another assay is T8, TX1BP3, O14907.
T8 sequence (O14907 10-122, limits assumed, looked up): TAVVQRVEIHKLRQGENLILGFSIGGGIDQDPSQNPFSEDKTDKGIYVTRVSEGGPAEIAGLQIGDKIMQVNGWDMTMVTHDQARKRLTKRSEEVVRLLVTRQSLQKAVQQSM

The target of a further assay is T9, APBA2_1, Q99767.
T9 sequence (Q99767 563-664, limits assumed, looked up): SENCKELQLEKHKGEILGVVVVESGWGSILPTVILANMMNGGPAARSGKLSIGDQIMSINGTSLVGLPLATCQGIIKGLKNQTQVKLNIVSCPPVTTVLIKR

A further assay concerns the target T10, RAPGEF6, Q8TEU7.
T10 sequence (Q8TEU7 525-625, limits assumed, looked up): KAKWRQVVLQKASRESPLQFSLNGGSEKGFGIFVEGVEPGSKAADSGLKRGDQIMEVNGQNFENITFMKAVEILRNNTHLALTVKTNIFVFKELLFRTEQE

The target of another assay is T11, TIAM2, Q8IVF5.
T11 sequence (Q8IVF5 885-986, limits assumed, looked up): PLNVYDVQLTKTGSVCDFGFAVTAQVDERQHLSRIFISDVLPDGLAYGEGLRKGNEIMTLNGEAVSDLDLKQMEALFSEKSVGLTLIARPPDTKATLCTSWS

The target of the next assay is T12, PDZD7_3, Q9H5P4.
T12 sequence (Q9H5P4 857-944, limits assumed, looked up): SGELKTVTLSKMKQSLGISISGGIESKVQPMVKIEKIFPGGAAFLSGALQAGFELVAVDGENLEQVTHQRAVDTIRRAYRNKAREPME
Particulars: plain residues with an end cap or a label only (N-terminal biotin on a linker: ttds).

A further assay has as its target T13, SYNJ2BP, P57105.
T13 sequence (P57105 8-110, limits assumed, looked up): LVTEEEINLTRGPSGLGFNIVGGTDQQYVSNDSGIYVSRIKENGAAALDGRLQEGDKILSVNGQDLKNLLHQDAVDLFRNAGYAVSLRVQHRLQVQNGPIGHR

The next assay deals with T14, SNTA1, Q13424.
T14 sequence (Q13424 82-180, limits assumed, looked up): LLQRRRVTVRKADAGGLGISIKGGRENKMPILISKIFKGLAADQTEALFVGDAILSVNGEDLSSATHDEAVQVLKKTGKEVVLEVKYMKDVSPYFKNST

Where [1] appears, read: plain residues with an end cap or a label only (N-terminal biotin on a linker: ttds).
[2] abbreviates: plain residues with an end cap or a label only (N-terminal biotin on a linker: ahx).

Chain of DLG4_1, P78352 (P78352 62-152): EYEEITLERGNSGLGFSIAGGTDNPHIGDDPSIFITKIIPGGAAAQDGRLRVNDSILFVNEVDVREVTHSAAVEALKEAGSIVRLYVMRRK
Chain of MAGI2_5, Q86UL8 (Q86UL8 915-1017): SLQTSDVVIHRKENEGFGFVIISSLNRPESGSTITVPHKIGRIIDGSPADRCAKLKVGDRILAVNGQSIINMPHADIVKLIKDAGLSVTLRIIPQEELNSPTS
Chain of MAGI1_2, Q96QZ7 (Q96QZ7 456-580): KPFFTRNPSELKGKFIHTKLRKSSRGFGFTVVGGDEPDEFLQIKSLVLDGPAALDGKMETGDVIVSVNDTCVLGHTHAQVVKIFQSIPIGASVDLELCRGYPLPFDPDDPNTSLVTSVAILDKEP
Chain of Inadl_3, Q8NI35 (Q8NI35 359-469): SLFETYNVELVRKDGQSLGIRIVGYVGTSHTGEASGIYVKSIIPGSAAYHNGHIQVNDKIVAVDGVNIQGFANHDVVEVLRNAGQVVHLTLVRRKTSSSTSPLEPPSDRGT
Chain of Inadl_4, Q8NI35 (Q8NI35 547-651): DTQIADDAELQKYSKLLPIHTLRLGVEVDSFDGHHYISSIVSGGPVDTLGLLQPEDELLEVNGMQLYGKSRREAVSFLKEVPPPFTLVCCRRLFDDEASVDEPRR
Chain of Inadl_9, Q8NI35 (Q8NI35 1530-1615): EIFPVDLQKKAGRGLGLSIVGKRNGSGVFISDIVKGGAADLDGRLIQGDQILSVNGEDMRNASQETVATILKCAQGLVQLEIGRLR

B1: ARHGEF7, Q14155;Q14155-1 (peptide)
chain: NDPAWDETNL
The term pKd denotes −log10 of the Kd, conventionally taken in molar units. Take B1: the pKd result with MAGI1_2, Q96QZ7 (setting [1]) is on record as “below the threshold”; in the assay with Inadl_4, Q8NI35 (setting [1]) it was “below the threshold”; with GRIP1_3, Q9Y3R0 (setting [1]), “below the threshold”; with HTRA4, P83105 (setting [1]) it was “below the threshold”; with DFNB31_3, Q9P202 (setting [1]), “below the threshold”; in the assay with LIN7C, Q9NUP9 (setting [1]), “below the threshold”. Also, the pKd result was “below the threshold” with APBA2_2, Q99767 (setting [1]); “below the threshold” with APBA1_1, Q02410 (setting [1]); “below the threshold” in the assay with DLG4_1, P78352 (setting [1]); “below the threshold” with GRIP1_2, Q9Y3R0 (setting [1]); “below the threshold” with Inadl_3, Q8NI35 (setting [1]); 5.76 with TX1BP3, O14907 (setting [1]). The pKd result with APBA2_1, Q99767 (setting [1]) is listed as “below the threshold”; with DLG1_3, Q12959 (setting [1]) it was “below the threshold”; with MAGI2_5, Q86UL8 (setting [1]), “below the threshold”; with RAPGEF6, Q8TEU7 (setting [1]), “below the threshold”; with DLG1_1, Q12959 (setting [1]), “below the threshold”; in the assay with Inadl_9, Q8NI35 (setting [1]) it was “below the threshold”. The pKd result is “below the threshold” in the assay with TIAM2, Q8IVF5 (setting [1]) and 4.24 with PDZD7_3, Q9H5P4.

B2: PDLIM4, P50479;P50479-2 (peptide)
chain: PSASCAVTAA
Consider B2, for which the pKd result is on record as “below the threshold” with MAGI1_2, Q96QZ7 (setting [2]); “below the threshold” in the assay with Inadl_4, Q8NI35 (setting [2]); “below the threshold” with GRIP1_3, Q9Y3R0 (setting [2]); “below the threshold” with HTRA4, P83105 (setting [2]); “below the threshold” in the assay with DFNB31_3, Q9P202 (setting [2]); “below the threshold” in the assay with LIN7C, Q9NUP9 (setting [2]). The pKd result with APBA2_2, Q99767 (setting [2]) is “below the threshold”; in the assay with APBA1_1, Q02410 (setting [2]) it was “below the threshold”; with DLG4_1, P78352 (setting [2]), “below the threshold”; in the assay with GRIP1_2, Q9Y3R0 (setting [2]), “below the threshold”; with Inadl_3, Q8NI35 (setting [2]), “below the threshold”; with SYNJ2BP, P57105 (setting [2]) it was “below the threshold”. In addition, the pKd entry with TX1BP3, O14907 (setting [2]) is “below the threshold”; with APBA2_1, Q99767 (setting [2]), “below the threshold”; with DLG1_3, Q12959 (setting [2]) it was “below the threshold”; with MAGI2_5, Q86UL8 (setting [2]), “below the threshold”; with RAPGEF6, Q8TEU7 (setting [2]) it was “below the threshold”; in the assay with DLG1_1, Q12959 (setting [2]) it was “below the threshold”. In addition, the pKd entry with Inadl_9, Q8NI35 (setting [2]) is recorded as “below the threshold”; with SNTA1, Q13424 (setting [2]), “below the threshold”; with TIAM2, Q8IVF5 (setting [2]), “below the threshold”.

B3: PLCB4, Q15147 (peptide)
chain: EMDRRPATVV
Consider B3, for which the pKd result with MAGI1_2, Q96QZ7 (setting [1]) was “below the threshold”; in the assay with GRIP1_3, Q9Y3R0 (setting [1]), “below the threshold”; with HTRA4, P83105 (setting [1]) it was 3.6; with DFNB31_3, Q9P202 (setting [1]) it was 3.69; with LIN7C, Q9NUP9 (setting [1]) it was “below the threshold”; with APBA2_2, Q99767 (setting [1]), “below the threshold”. Also, the pKd result with APBA1_1, Q02410 (setting [1]) is “below the threshold”; with DLG4_1, P78352 (setting [1]), 4.13; with GRIP1_2, Q9Y3R0 (setting [1]), 3.72; with SYNJ2BP, P57105 (setting [1]), 3.7; in the assay with TX1BP3, O14907 (setting [1]), 3.73; with APBA2_1, Q99767 (setting [1]), “below the threshold”. Further, the pKd entry with MAGI2_5, Q86UL8 (setting [1]) is “below the threshold”; with RAPGEF6, Q8TEU7 (setting [1]), “below the threshold”; with DLG1_1, Q12959 (setting [1]) it was 4.2; with SNTA1, Q13424 (setting [1]), 4.08; in the assay with TIAM2, Q8IVF5 (setting [1]), “below the threshold”; with PDZD7_3, Q9H5P4, 5.03.
